This test addresses purified β protein (β clamp) (UniProt P0A988). In words: SPR.

Usually Kd stands for the equilibrium constant for the complex coming apart. Read a low Kd as a tighter complex.

B1: His-6-tagged TnsE, purified (natural protein)
chain: MVRLATFNDNVQVVHIGHLFRNSGHKEWRIFVWFNPMQERKWTRFTHLPLLSRAKVVNSTTKQINKADRVIEFEASDLQRAKIIDFPNLSSFASVRNKDGAQSSFIYEAETPYSKTRYHIPQLELARSLFLINSYFCRSCLSSTALQQEFDVQYEVERDHLEIRILPSSSFPKGALEQSAVVQLLVWLFSDQDVMDSYESIFRHYQQNREIKNGVESWCFSFDPPPMQGWKLHVKGRSSNEDKDYLVEEIVGLEINAMLPSTTAISHASFQEKEAGDGSTQHIAVSTESVVDDEHLQLDDEETANIDTDTRVIEAEPTWISFSRPSRIEKSRRARKSSQTILEKEEATTSENSNLVSTDEPHLGGVLAAADVGGKQDATNYNSIFANRFAAFDELLSILKTKFACRVLFEETLVLPKVGRSRLHLCKDGSPRVIKAVGVQRNGSEFVLLEVDASDGVKMLSTKVLSGVDSETWRNDFEKIRRGVVKSSLNWPNSLFDQLYGQDGHRGVNHPKGLGELQVSREDMEGWAERVVREQFTH
As to B1, the Kd worked out at 2440 nM.

Source of the values: publication PMC2752310.
